The data set deals with the molecule itself. The data set is described as follows: SEC; Superdex 200 10/300 GL, 10 mM Tris-HCl pH 7.5, 150 mM NaCl, 0.5 mL/min, 4°C; equivalent molar concentrations, incubated 15 minutes; molecular weight from BioRad gel-filtration standards.

B1: IpgC (natural protein)
chain: MSLNITENESISTAVIDAINSGATLKDINAIPDDMMDDIYSYAYDFYNKGRIEEAEVFFRFLCIYDFYNVDYIMGLAAIYQIKEQFQQAADLYAVAFALGKNDYTPVFHTGQCQLRLKAPLKAKECFELVIQHSNDEKLKIKAQSYLDAIQDIKE
notes: also called translocator-specific chaperone from Shigella
B1: the “stoichiometry N” value amounted to 2.

Source of the values: PMC4222845 (PLoS Pathogens, 2014).
